According to patent publication US20120122783A1 (INDIANA UNIVERSITY RESEARCH AND TECHOLOGY, published 2012):

Experiments:
[1] = target: human glucagon receptor (human, UniProt P47871 26-477); test: cell-based or functional assay
[2] = target: human GLP-1 receptor (human, UniProt P43220 24-463); test: cell-based or functional assay

human glucagon receptor, sequence (P47871 26-477): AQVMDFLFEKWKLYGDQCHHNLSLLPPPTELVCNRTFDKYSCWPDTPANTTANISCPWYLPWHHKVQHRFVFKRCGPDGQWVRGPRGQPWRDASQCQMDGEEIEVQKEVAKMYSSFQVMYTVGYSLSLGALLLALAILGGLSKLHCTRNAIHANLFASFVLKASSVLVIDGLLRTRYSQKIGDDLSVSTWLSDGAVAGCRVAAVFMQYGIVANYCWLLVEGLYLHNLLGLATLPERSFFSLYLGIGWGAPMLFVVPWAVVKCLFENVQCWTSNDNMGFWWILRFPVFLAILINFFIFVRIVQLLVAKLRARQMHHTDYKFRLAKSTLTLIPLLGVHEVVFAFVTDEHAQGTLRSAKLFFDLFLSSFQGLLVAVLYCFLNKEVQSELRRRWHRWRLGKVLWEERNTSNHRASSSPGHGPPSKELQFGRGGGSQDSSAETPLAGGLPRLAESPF

With HSQGTFTSDYSRYLDSRRAQDFVQWLMNK [Glucagon R12 K29] the “cAMP Induction EC50” value [1] was 0.81 nM and the “cAMP Induction EC50” value [2] was 0.41 nM.
